This data set is described as follows: label from the status in PepcDB records.
Turning to “MANEDCPKAADSPFSSDKHAQLILAQINKMRNGQHFCDVQLQVGQESFKAHRLVLAASSPYFAALFTGGMKESSKDVVPILGIEAGIFQILLDFIYTGIVNIGVNNVQELIIAADMLQLTEVVHLCCEFLKGQIDPLNCIGIFQFSEQIACHDLLEFSENYIHVHFLEVHSGEEFLALTKDQLIKILRSEELSIEDEYQVFLAAMQWILKDLGKRRKHVVEVLDPIRFPLLPPQRLLKYIEGVSDFNLRVALQTLLKEYCEVCKSPKENKFCSFLQTSKVRPRKKARKYLYAVGGYTRLQGGRWSDSRALSCVERFDTFSQYWTTVSSLHQARSGLGVTVLGGMVYAIGGEKDSMIFDCTECYDPVTKQWTTVASMNHPRCGLGVCVCYGAIYALGGWVGAEIGNTIERFDPDENKWEVVGNMAVSRYYFGCCEMQGLIYVIGGISNEGIELRSFEVYDPLSKRWSPLPPMGTRRAYLGVAALNDCIYSVGGWNETQDALHTVEKYSFEEEKWVEVASMKVPRAGMCVVAVNGLLYVSGGRSSSHDFLAPGTLDSVEVYNPHSDTWTEIGNMITSRCEGGVAVL”, the protein production entry was “failed”.

Take “SSALSRNGSFITKEKKDTVLRQVRLDPCDLQPIFDDMLHFLNPEELRVIEEIPQAEDKLDRLFEIIGVKSQEASQTLLDSVYSHLPDLL”: the protein production result is “not failed”. In the case of “DSVDKTMHIGRQLGSLVNKGDILCLTGDLGTGKTHISKGIAEGLGIDEHITSPTFNIVNEYHSGRLTLYHFDVYRVNDPDEIEAIGFDEYIFGDGVSLIEWANYIEELIPEEYIHIKIEKLPDMGENFRKITINGYGDRYNYIKEIKE”, the protein production entry was “failed”. For “MPQDTTNPSTGTAEQRTATDTTVQLRAGWQGRFYEDFAVGDVYKHPYGRTVTETDNVWFTNLTMNANPMHFNAAYASGTEFDERLVNGLFVIALSVGMSVVDVSANATANLGYDDIQHHAPVFHGDTLFAESEVLSKRESESRPHVGMVTTELRTYTQDGELVLSLERTPMVRKRGAADPSAARPPGWPAGVGTQPDAERTVPDGESR”, the protein production entry is reported as “failed”. Take “YTCSFVGHFSAGKSTLINLLIEQDILPSSPVPTTSNTAIVSVSDNHDIIANLPNQTYAKLSNYDEVREMNRQNVDVESVEINFQSAKFENGFTLQDTPGVDSNVASHQSITEQYMYTSNMIFYTVDYNHVQSELNFKFMKHINDVGIPVVFIINQIDKHQDDELS”: the protein production result is “failed”.

On to “MILTILIGAMAAIFIAFNLFEKKEKYGVVSYKTIALSVTYVILAVIVGSFLDNFNTLFQGFHDSLTAAKRY”, for which the protein production result is recorded as “failed”. With “MDAKARNCLLQHREALEKDIKTSYIMDHMISDGFLTISEEEKVRNEPTQQQRAAMLIKMILKKDNDSYVSFYNALLHEGYKDLAALLHDGIPVVSSSSGKDSVSGITSYVRTVLCEGGVPQRPVVFVTRKKLVNAIQQKLSKLKGEPGWVTIHGMAGCGKSVLAAEAVRDHSLLEGCFPGGVHWVSVGKQDKSGLLMKLQNLCTRLDQDESFSQRLPLNIEEAKDRLRILMLRKHPRSLLILDDVWDSWVLKAFDSQCQILLTTRDKSVTDSVMGPKYVVPVESSLGKEKGLEILSLFVNMKKADLPEQAHSIIKECKGSPLVVSLIGALLRDFPNRWEYYLKQLQNKQFKRIRKSSSYDYEALDEAMSISVEMLREDIKDYYTDLSILQKDVKVPTKVLCILWDMETEEVEDILQEFVNKSLLFCDRNGKSFRYYLHDLQVDFLTEKNCSQLQDLHKKIITQFQRYHQPHTLSPDQEDCMYWYNFLAYHMASAKMHKELCALMFSLDWIKAKTELVGPAHLIHEFVEYRHILDEKDCAVSENFQEFLSLNGHLLGRQPFPNIVQLGLCEPETSEVYQQAKLQAKQEVDNGMLYLEWINKKNITNLSRLVVRPHTDAVYHACFSEDGQRIASCGADKTLQVFKAETGEKLLEIKAHEDEVLCCAFSTDDRFIATCSVDKKVKIWNSMTGELVHTYDEHSEQVNCCHFTNSSHHLLLATGSSDCFLKLWDLNQKECRNTMFGHTNSVNHCRFSPDDKLLASCSADGTLKLWDATSANERKSINVKQFFLNLEDPQEDMEVIVKCCSWSADGARIMVAAKNKIFLFDIHTSGLLGEIHTGHHSTIQYCDFSPQNHLAVVALSQYCVELWNTDSRSKVADCRGHLSWVHGVMFSPDGSSFLTSSDDQTIRLWETKKVCKNSAVMLKQEVDVVFQENEVMVLAVDHIRRLQLINGRTGQIDYLTEAQVSCCCLSPHLQYIAFGDENGAIEILELVNNRIFQSRFQHKKTVWHIQFTADEKTLISSSDDAEIQVWNWQLDKCIFLRGHQETVKDFRLLKNSRLLSWSFDGTVKVWNIITGNKEKDFVCHQGTVLSCDISHDATKFSSTSADKTAKIWSFDLLLPLHELRGHNGCVRCSAFSVDSTLLATGDDNGEIRIWNVSNGELLHLCAPLSEEGAATHGGWVTDLCFSPDGKMLISAGGYIKWWNVVTGESSQTFYTNGTNLKKIHVSPDFKTYVTVDNLGILYILQTLE”, the protein production entry was “failed”.

For “MNAIRYTKRECKDEKKITEFLNKARTGFLGLSTNDQPYVIPLNFVWHNHAIYFHGASEGRKIKMIEANPEVCFTICEDLGTIVSPVPAHTDTAYMSVIIFGTIEPVSAIEEGTEAMQQMLDKYVPGYYHSPLAASHVEKYRSSLGSRTAIYKISCRERTAKVNEPIESLKFYPGRNVSVDKDSR”, the protein production result is listed as “not failed”. For the sequence “AENNMVRLSRIIIDPERLEEYNAYLKEEIEVSMRLEPGVLVLYAVAEKERPNHVTILEIYADEAAYKSHIATPHFKKYKEGTLDMVQMLELIDATPLIPGLKMK”, the protein production result is given as “not failed”.

As for “MLARALFFVVLSTATFLFLWQFPSTGAQSIPHLDKLVHFGIFFVLALTFHRAFALSAKLSLLILVCYGFLIEIAQSYAPGRSADVYDWLADASGVVAYFILHHLLSKKSR”, the protein production result was “failed”.

With “MGKIQELSEQLANQIAAGEVVERPASVVKELVENALDAGSTQIDIFIEEAGLKTIQIIDNGEGIAKEDVLNAFKRHATSKIHTRDDLFRIRSLGFRGEALPSIASVSEMIVETATAEEEEGSYVILKGGKVEENRPAALRKGTKMTVSNLFYNTPARLKYVKTIQTELANIGDIVNRLALSHPKVAFRLVHDGHKMMSTTGNGDLKQTIAGIYGISTAKKMLKIEGKDLDFTLTGYVSLPEVTRASRNYLSTIINGRYIKNFALNKAIVAGYGSKLMVGRFPIAVLEIEMDPLLVDVNVHPTKQEVRLSKEKDLMALIEQAIQEVLSQEQLIPNAADNLRFKKKLPPEPKAEQMEIPLSTEQPAVKQRPGSLSYNPATGRFYAEHATDETPASSAPEAVNQTERAVDPMDDPFAPPVPESTSVAEETSAYETSSAAADSANHWETASNEQQVIAEETKITEVPDSEPSLRSSEAADEVFQEEMKLHPEFDANSAASQRELKQALNKLEEERPTERFPELEYFGQMHGTYLFAQSKDGLFIIDQHAAQERIKYEYFREKIGEVSDDLQELLVPIVIDYPNSDALKIKEQKETLAEVGIHLEDFGQNSFIVRAHPTWYPAGEEESIVREMIDMLLTTGSVSVKKFREATAIMMSCKRSIKANHYLNEQQARVLLKDLALCENPFNCPHGRPVLIHFTNSDMERMFKRIQDPH”, the protein production entry was “failed”. As for “MRWNICVVGAGKIGQMIAALLKTSSNYSVTVADHDLAALAVLNRMGVATKQVDAKDEAGLAKALGGFDAVISAAPFFLTPIIAKAAKAAGAHYFDLTEDVAATNAVRALAEDSQTAFMPQCGLAPGFVGIAGAALAAEFDEIDSLHMRVGALPLYPTNALKYNLTWSTDG”, the protein production result was “failed”. As to “MGHHHHHHSHMDDIFTQCREGNAVAVRLWLDNTENDLNQGDDHGFSPLHWACREGRSAVVEMLIMRGARINVMNRGDDTPLHLAASHGHRDIVQKLLQYKADINAVNEHGNVPLHYACFWGQDQVAEDLVANGALVSICNKYGEMPVDKAKAPLRELLRERAEK”, the protein production entry was “not failed”. To “MHSDALSWGHGPRLFEVFLEPTCPFSVKAFFKLDDLLAQAGEDNVTVRIRLQSQPWHMFSGVIVRCILAAATLEGGKESAKAVMTAVASHREEFEFEHHAGGPNLDATPNDIIARIERYSGLALAEAFANPELEHAVKWHTKYARQNGIHVSPTFMINGLVQPGMSSGDPVSKWVSDIG” belongs “not failed”.

Take “MKARQQKYCDKIANFWCHPTGKIIMSLAGKKIVLGVSGGIAAYKTPELVRRLRDRGADVRVAMTEAAKAFITPLSLQAVSGYPVSDSLLDPAAEAAMGHIELGKWADLVILAPATADLIARVAAGMANDLVSTICLATPAPVAVLPAMNQQMYRAAATQHNLEVLASRGLLIWGPDSGSQACGDIGPGRMLDPLTIVDMAVAHFSPVNDLKHLNIMITAGPTREPLDPVRYISNHSSGKMGFAIAAAAARRGANVTLVSGPVSLPTPPFVKRVDVMTALEMEAAVNASVQQQNIFIGCAAVADYRAATVAPEKIKKQATQGDELTIKMVKNPDIVAGVAALKDHRPYVVGFAAETNNVEEYARQKRIRKNLDLICANDVSQPTQGFNSDNNALHLFWQDGDKVLPLERKELLGQLLLDEIVTRYDEKNRR”: the protein production entry was “failed”.

As to “MSLESMLSHPPIPIADMAEHTERLKANDSLKLSQEYESIDPGQQFTWEHSNLEVNKPKNRYANVIAYDHSRVILQPIEGIMGSDYINANYVDGYRRQNAYIATQGPLPETFGDFWRMVWEQRSATIVMMTRLEEKSRIKCDQYWPNRGTETYGFIQVTLLDTIELATFCVRTFSLHKNGSSEKREVRQFQFTAWPDHGVPEYPTPFLAFLRRVKTCNPPDAGPIVVHCSAGVGRTGCFIVIDAMLERIKPEKTVDVYGHVTLMRSQRNYMVQTEDQYSFIHEALLEAVGCGNTEVPARSLYAYIQKLAQVEPGEHVTGMELEFKRLANSKAHTSRFISANLPCNKFKNRLVNIMPYESTRVCLQPIRGVEGSDYINASFIDGYRQQKAYIATQGPLAETTEDFWRMLWENNSTIVVMLTKLREMGREKCHQYWPAERSARYQYFVVDPMAEYNMPQYILREFKVTDARDGQSRTVRQFQFTDWPEQGVPKSGEGFIDFIGQVHKTKEQFGQDGPISVHCSAGVGRTGVFITLSIVLERMRYEGVVDIFQTVKMLRTQRPAMVQTEDEYQFCYQAALEYLGSFDHYATEGHHHHHH”, the protein production entry was “not failed”. For the sequence “LMLACMNMARKKTGALIAIQQGIDLTPFAHTGEVFRAEVNARLVENIFFKNSPLHDGAMVIADNSIIAAGCILPVAYNTDLNKDLGLRHRSALGLSQETDAKIIIISEERGRISFAYRGEIHQDITTDELQLLLED”, the protein production result is “failed”. For “MRFLSLVGNSFGCSASGERLVSAARDGDLQEAKALLDYNPRLARYSTFGVRNSPLHYSAAQGHHEIVSLLVESGVDINLRNYRGQTALMQACQHGHWEVVLILILFGANIHRSDYLNGGTALHLAALNGHPRCIRILLSEYIPSVPNCWSLLKNKKTSVAGFDSSVLHEVINRAADGGITPLHVAALNGHIETVQLLLDLGASVTQVTVEDGTTIDLIGAGSTALHYASCGGNTQCCQLLISKGACLAAVNSNGWTPMMVARSWHRNWLEEILNPTTEQPQLHLPNVPSPFLCLPLMSIVNIAQECGWRENDCLTPCRDPCAVCLERKCTVAADGCAHEFCTNCALYLSTTSITSSKTSNVTPGSVPCPLCRNGIVSFTKLPHTTATTRTSTSSRTSISLSFCTCSSDVLDTALLTNPHYSCKPVVSRTGSRTPQSARSSAFRSLSCRRFPPSLCLGGSDVDEPRSRLIGGSYSRSGVGFRRSTSQVEGKRSWFSALNHCVTTGGSAC”, the protein production entry is listed as “failed”.

Turning to “MWQNFYLTTLKLSQYTQEEKPILPADNMDPRALASVHAWEHGDFMCKGYIQSRLSDPLYNVYSNVETSNELWDSLDKKYQTKDAGSQKYAAAKFLDYKMVDSRPMMVQVEELTCLFHDI”, the protein production result is “not failed”. With “MISSLTTIISTGTNLGSGTDDDIYFGIHLNNGQKKEWLLDKETYNDFENGATDEYYLYINDMDFLPTMVDKVWVRKNSTGSFAGNWFFKALRIDANGNDVLSVSPNEWITDLEHHHHHH” the entry was “not failed”.
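Note: failed if final PepcDB status was selected cloned or expressed and not failed if soluble or beyond.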
